{"source": "patent US20010041790A1", "target": "35S-labeled hamster PrPsen, glycophosphoinositol-negative form (35S-HaPrPsen) (Syrian golden hamster) (UniProt P04273)", "test": "cell-based or functional assay", "data": [{"substance": "HaP109-141(del113-116) (peptide)", "values": [{"measurement": "IC50 of the conversion reaction", "value": 70, "unit": "µM"}]}]}
